Experimental data taken from the supplement of paper PMC12764529.
± gives the half width of the 95% confidence interval.

Assay: folding stability dG unfold from chymotrypsin proteolysis; higher = more stable
Summary of the method: (§1)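 Mini-proteins designed to be under 80 residues and free of cysteine were carried in a PA-tagged cDNA display construct and digested with trypsin and with chymotrypsin. Each protease was applied at 11 threefold-diluted concentrations, alongside a no-protease condition, before sequencing. K50 came from Bayesian fitting of the sequencing counts, and unfolding free energy was obtained by comparing it with a sequence-predicted unfolded-state K50 and a shared folded-state K50, for each protease separately or for both together. Designs were retained only if their AlphaFold2 dimer inter-PAE exceeded 15.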

Row | Sequence | folding stability dG unfold
1 | SAGGSAGGSMEVDIEVETLETEVSFLPGDLIKVKKLVKITLPNGEVLEEETEEIIPKSEIGKLSAGGSAGGS [r12_1028_JUSTAS] | -0.00695 ± 0.12 kcal/mol
2 | SAGGSAGGSAMTLEEKALESEELKKKIEEAPPSTKLITFELPGGEKITFTKNPDGSVVLSPSAGGSAGGSAG [r3_124_JUSTAS] | 1.41 ± 0.1 kcal/mol
3 | SAGGSAGGSPVPVKVVVKLPSSDKTIELTLYPPDVSPDSVVTVDLGGPAIDVKLLPGDVLELSPSAGGSAGG [r6_461_JUSTAS] | 0.524 ± 0.039 kcal/mol
4 | SAGGSAMYKVEVTATTSSSSTPYPLEMDFETEEEAKERVKKYLEEKYGDPISSIETKIEPVEPGLESAGGSA [r15_670_JUSTAS] | -0.645 ± 0.57 kcal/mol
5 | SAGGSAGGSAGMVINVTVTLKNSTGTITITLPVPPDLLDEVLKELKEKPDYEVVSVDTSPSAGGSAGGSAGG [r11_692_JUSTAS] | 2.79 ± 0.16 kcal/mol
6 | SAGGMKTYEYELELEGGGRLRIKITEDPNNPVYTVTFYSPEGKKLKTITIPANSIEEALKEAIELLKSAGGS [r16_158_JUSTAS] | 4.79 ± 0.12 kcal/mol
7 | SAGGSAGGWIPVEELAKEFGFSPDFIEQLMKNGYKIEYEYHEPGWVRLSVENPDNGKKREITFPSAGGSAGG [r6_969_TrROS] | 2.183 ± 0.019 kcal/mol
8 | SAGGSAGGSAGGSKPKKIKVETVTLEDGLTLQVVVNEDTKEKVIVLVPPSEEVTVLVEPSAGGSAGGSAGGS [r4_99_TrROS_Hall] | 1.11 ± 0.076 kcal/mol
9 | SAGGSAGGSVKITTEPDPNGYYRVTVTIRLNDKPIPVDMPFPPGKTPDQVKEKARDIAKELLKSAGGSAGGS [r12_69_TrROS] | 0.546 ± 0.13 kcal/mol
10 | SAGGSAGGSAGGKSKTLRLYNKDTGVAVTVTLNEDGSLSVTVEPLPPPPPVEEKVVVKGSAGGSAGGSAGGS [r10_664_TrROS_Hall] | 1.37 ± 0.13 kcal/mol
11 | SAGMTLTLELPVPPDMSEEEARALALARVREEVAALSPGGATVTPVAVSVDPETGTVSLEVEVEVPPLASAG [r5_146_JUSTAS] | 1.45 ± 0.042 kcal/mol

Assay: folding stability dG unfold (combined trypsin and chymotrypsin); higher = more stable
Summary of the method: as §1

Row | Sequence | folding stability dG unfold
12 | SAGGMIKLEFENPDGMRIKIEIDRIHRFDPDNGYLIIPVKIEVEPPGKPREIDGTIILPPGMPPGQPLSAGG [r13_823_TrROS] | 1.43 ± 0.24 kcal/mol
13 | SAGGSAGGSAGKKEKVILLPVDAEPDETPEELAKKLKELNPDVEVLGFDPETGYVLVKVPSAGGSAGGSAGG [r11_465_TrMRF] | 0.149 ± 0.18 kcal/mol
14 | SAGGSEEVEEEPPVVVTVRLTIELTLADGSKVRVEVELVRTADGRLLLKIRVVNEDTGEVYEFTFPSAGGSA [r2_484_TrROS_Hall] | 4.6 ± 0.19 kcal/mol
15 | SAGGSAGGSAGKVTLVFKTKEDALNAIKELAEKEGLKVKIVKIEELPNGLIKITVEIEKPSAGGSAGGSAGG [r11_304_TrROS_Hall] | 4.22 ± 0.17 kcal/mol
16 | SAGGSAGGKYEIVEVEEKEVNGEKYLIFKVKNENGEELLITVSKEDAEKILASLPPGATVEILPSAGGSAGG [r6_111_TrROS_Hall] | 3.84 ± 0.25 kcal/mol
17 | SAGGKDVKPIPVRIKIWYPDDGKPIHEIPVSAYQMDDKIHITFESPELLQFAKELAQKKGFKVEIEPSAGGS [r16_327_TrROS] | 0.695 ± 0.11 kcal/mol
18 | SASLEEILASLGYSVSRSVLPNGTEVVTARHPDGTTVTVTVTPDGTTVTVTPPDGTVTTLSVEDVRRALSAG [r14_578_JUSTAS] | 3.03 ± 0.05 kcal/mol
19 | SAGGGFSVSTGTLTDPVTGKPITLTVTNLPDGVSRVTVTLEDGKTFEFTFPANNPPTPEQVAEAVKAFSAGG [r13_492_TrMRF] | 3.64 ± 0.04 kcal/mol
20 | SAGGALANLSPEEIAALLESQGYEVTILEVEEKPGERIVKIRVTVKREDGTVESVEEIELTLPAPDKLSAGG [r13_566_JUSTAS] | 2.83 ± 0.095 kcal/mol
21 | SAGGSAGGSAGGKPKTVKIIRDKKTNRLLIERDGKVYEFDVDNVEVREVTLEDLKEEELSAGGSAGGSAGGS [r10_512_TrROS_Hall] | 0.88 ± 0.14 kcal/mol
22 | SAGGMVIVVKTPGGATSITLGNLTITQDPSTGVAVAEATPEQVEALKKDPALKDIESIEILPEEELKSAGGS [r8_493_JUSTAS] | 0.458 ± 0.14 kcal/mol
23 | SAGGSAGGMKTVEIEVTVKTPDGKEVKIKKARIEYDKETKTFHLYFENEETGEWYEVDEIKLKDSAGGSAGG [r6_329_TrROS_Hall] | 2.71 ± 0.2 kcal/mol
24 | SAGGSMPLTLEIKAPASTPASEIVATLKKYGPVTVTLGDGRTYNIPRDKPPNLKGLPLAPDAVLTLVVSAGG [r13_399_JUSTAS] | -0.263 ± 0.091 kcal/mol
25 | SAGGSAGGEISFDPETGKLTILAPSSISPDAIKKAIEEAGIPFKITSVSYIPDPKTLKVEYEISSAGGSAGG [r6_395_TrMRF] | 0.719 ± 0.19 kcal/mol
26 | SAGGVIMIPADEILDMIEQNPDEPKTIFARPNNRMVMFTLKIDPDKPDNIEIDNVWRYDPNGKGEHLPSAGG [r13_481_TrROS] | -0.365 ± 0.22 kcal/mol
27 | SAMKVTITVTKHTLPDGTPYYTVTITDPSTGKTFSGPVSSEEEAKATAQALADKIEAEGTPVTITFTDDSAG [r14_263_JUSTAS] | 3.99 ± 0.14 kcal/mol
28 | SAGGSAGGMKYVVTVELPETGTTRTLTIPDNYTGEENVKKAVEEEAKKLGYSISKIEITKINDKSAGGSAGG [r6_718_JUSTAS] | 0.536 ± 0.12 kcal/mol
29 | SAGGSAGGSAGFNIRIVNVEITGNKLTIYLPNGWVITIKFNKNGNINMKIEDIKPLPPGASAGGSAGGSAGG [r17_173_TrROS] | 3.61 ± 0.14 kcal/mol
30 | SAGGSAGGVVVVAKFPTREAVFVAPESLTPEQFAEALRRELGNPDAPLVDLEVRRVTPEELLAASAGGSAGG [r6_120_TrMRF] | 0.691 ± 0.15 kcal/mol
31 | SAGGSAGGGSSITPVEVTPLPEDKYRVLIRITTYLPGGKPRTEEIEVEMPPDETAEEAAARVLSSAGGSAGG [r6_329_JUSTAS] | 0.367 ± 0.075 kcal/mol
32 | SAGMPLPAEELAERLAKEIEESTDYKVSIEEIKPEGEYVIIKVRVELPEKYKDKGYEEEEFVAIFPGDLSAG [r5_970_TrMRF] | 0.702 ± 0.25 kcal/mol
